The values below come from PMC3775653 (Journal of the American Chemical Society, 2013).

A word on the stoichiometry N: it is the number of molecules, sites or subunits per partner or assembly.

This data set concerns the molecule itself. Briefly: AUC.

B1: AmpDh2 (zinc protease of Pseudomonas aeruginosa), recombinant, without the 17-amino-acid N-terminal membrane anchor (enzyme)
chain: SSGPRLNTDYTSANQDSRVQFIVLHYTSTDLPHSLGILTHGGVSAHYLIGDDEPATVYRLVDENRRAWHAGVSEWQGRTWLNATSIGIEIVNQGYRDTPQGRVWYPFSEAQIQALIPLLKDIAKRHGITPDRIIGHSDIAPGRKVDPGPLFPWKRLADAGLVPWPKPGELARRLAELNGQLPDVRWFQQQLARHGYLVPQTGELEKDTRDVIGAFQMKYRPARFDGEPDLETAALLLAVPTS
Take B1: the “stoichiometry N” value came to 2.
